Numbering of substitutions follows the chain as printed. Numbers in names are those of the source.

The labels stand for the following.
T1: EsCas13d, nuclease-dead (Eubacterium siraeum, UniProt B0MS50, R295A;H300A;R849A;H854A)
T1 sequence: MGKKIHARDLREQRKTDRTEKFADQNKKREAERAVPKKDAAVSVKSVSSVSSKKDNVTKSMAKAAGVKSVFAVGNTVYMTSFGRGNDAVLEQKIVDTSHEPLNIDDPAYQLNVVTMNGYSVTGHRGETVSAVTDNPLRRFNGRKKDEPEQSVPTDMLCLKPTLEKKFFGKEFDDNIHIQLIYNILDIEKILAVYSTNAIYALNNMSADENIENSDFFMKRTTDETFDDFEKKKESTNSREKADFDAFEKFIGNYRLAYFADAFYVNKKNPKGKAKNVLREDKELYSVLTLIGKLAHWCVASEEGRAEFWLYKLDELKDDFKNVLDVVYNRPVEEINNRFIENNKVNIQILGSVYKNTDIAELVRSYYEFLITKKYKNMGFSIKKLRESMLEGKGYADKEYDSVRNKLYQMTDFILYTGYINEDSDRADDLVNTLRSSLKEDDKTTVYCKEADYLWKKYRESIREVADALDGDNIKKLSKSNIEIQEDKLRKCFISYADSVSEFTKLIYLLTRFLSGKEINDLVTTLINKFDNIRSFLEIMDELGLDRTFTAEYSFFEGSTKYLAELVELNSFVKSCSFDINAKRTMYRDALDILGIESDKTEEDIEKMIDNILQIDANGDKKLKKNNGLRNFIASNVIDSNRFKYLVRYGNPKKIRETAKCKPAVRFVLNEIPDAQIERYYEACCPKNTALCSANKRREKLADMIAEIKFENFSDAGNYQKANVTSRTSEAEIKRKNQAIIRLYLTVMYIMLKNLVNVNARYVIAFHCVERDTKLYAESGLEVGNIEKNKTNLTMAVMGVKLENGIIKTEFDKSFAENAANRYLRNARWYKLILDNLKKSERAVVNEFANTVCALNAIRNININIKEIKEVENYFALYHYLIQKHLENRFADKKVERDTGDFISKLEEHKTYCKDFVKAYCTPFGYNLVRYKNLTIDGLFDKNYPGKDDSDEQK

B1: target 1 MT 5'PFS GUG 3'PFS CAU (mixed)
RNA 1: CACCCGUGCAAAAAUGCAGGGGUCUAAAACUGAGCGGAUAACCUCUCUAUGG
RNA 2: GGGAAUGGAUCCACAUCUACGAAUUCGUGCCAUAGAGAGGUUAUCCGCUCACAUAGAUCGGAAGAGCACACGU
B2: target 1 MT 5'PFS CCA 3'PFS AUG (mixed)
RNA 1: B1 RNA 1
RNA 2: B1 RNA 2 with G27C, U28C, G29A, C52A, A53U, U54G
B3: target 1 MT 5'PFS GUG 3'PFS GUA (mixed)
RNA 1: B1 RNA 1
RNA 2: B1 RNA 2 with C52G, A53U, U54A
B4: target 1 MT 5'PFS AAA 3'PFS AGA (mixed)
RNA 1: B1 RNA 1
RNA 2: B1 RNA 2 with G27A, U28A, G29A, C52A, A53G, U54A
B5: target 1 insA 3' of 21,insC 3' of 13 (mixed)
RNA 1: B1 RNA 1
RNA 2: GGGAAUGGAUCCACAUCUACGAAUUCGUACCAAUAGAGAGCGUUAUCCGCUCACCGAGAUCGGAAGAGCACACGU
B6: target 1 MT 5'PFS AGC 3'PFS CUU (mixed)
RNA 1: B1 RNA 1
RNA 2: B1 RNA 2 with G27A, U28G, G29C, A53U
B7: target 1 MT 5'PFS GUG 3'PFS CAC (mixed)
RNA 1: B1 RNA 1
RNA 2: B1 RNA 2 with U54C
B8: target 1 MT 5'PFS CCA 3'PFS AUA (mixed)
RNA 1: B1 RNA 1
RNA 2: B1 RNA 2 with G27C, U28C, G29A, C52A, A53U, U54A
B9: target 1 MT 5'PFS UCA 3'PFS AGG (mixed)
RNA 1: B1 RNA 1
RNA 2: B1 RNA 2 with G27U, U28C, G29A, C52A, A53G, U54G
B10: target 1 G15C,G17U (mixed)
RNA 1: B1 RNA 1
RNA 2: B1 RNA 2 with G29A, G35U, G37C, A53C, U54G
B11: target 1 MT 5'PFS AGC 3'PFS CUA (mixed)
RNA 1: B1 RNA 1
RNA 2: B1 RNA 2 with G27A, U28G, G29C, A53U, U54A
B12: target 1 MT 5'PFS CUA 3'PFS ACA (mixed)
RNA 1: B1 RNA 1
RNA 2: B1 RNA 2 with G27C, G29A, C52A, A53C, U54A
B13: target 1 MT 5'PFS CUA 3'PFS ACC (mixed)
RNA 1: B1 RNA 1
RNA 2: B1 RNA 2 with G27C, G29A, C52A, A53C, U54C
B14: target 1 MT 5'PFS GUG 3'PFS CAA (mixed)
RNA 1: B1 RNA 1
RNA 2: B1 RNA 2 with U54A
B15: target 1 MT 5'PFS CAA 3'PFS AAU (mixed)
RNA 1: B1 RNA 1
RNA 2: B1 RNA 2 with G27C, U28A, G29A, C52A
B16: target 1 MT 5'PFS CAG 3'PFS AGC (mixed)
RNA 1: B1 RNA 1
RNA 2: B1 RNA 2 with G27C, U28A, C52A, A53G, U54C
B17: target 1 MT 5'PFS CUA 3'PFS ACG (mixed)
RNA 1: B1 RNA 1
RNA 2: B1 RNA 2 with G27C, G29A, C52A, A53C, U54G
B18: target 1 MT 5'PFS UCA 3'PFS CGG (mixed)
RNA 1: B1 RNA 1
RNA 2: B1 RNA 2 with G27U, U28C, G29A, A53G, U54G
B19: target 1 C4U,C7U (mixed)
RNA 1: B1 RNA 1
RNA 2: B1 RNA 2 with G29A, C45U, C48U, A53C, U54G
B20: target 1 MT 5'PFS GUG 3'PFS UUA (mixed)
RNA 1: B1 RNA 1
RNA 2: B1 RNA 2 with C52U, A53U, U54A
B21: target 1 MT 5'PFS CCA 3'PFS AUU (mixed)
RNA 1: B1 RNA 1
RNA 2: B1 RNA 2 with G27C, U28C, G29A, C52A, A53U
B22: target 1 MT 5'PFS CUA 3'PFS ACU (mixed)
RNA 1: B1 RNA 1
RNA 2: B1 RNA 2 with G27C, G29A, C52A, A53C
B23: target 1 MT 5'PFS GUG 3'PFS UUC (mixed)
RNA 1: B1 RNA 1
RNA 2: B1 RNA 2 with C52U, A53U, U54C
B24: target 1 insC 3' of 11,insU 3' of 5 (mixed)
RNA 1: B1 RNA 1
RNA 2: GGGAAUGGAUCCACAUCUACGAAUUCGUACCAUAGAGAGGUCUAUCCGUCUCACCGAGAUCGGAAGAGCACACGU
B25: target 1 MT 5'PFS UUG 3'PFS UUA (mixed)
RNA 1: B1 RNA 1
RNA 2: B1 RNA 2 with G27U, C52U, A53U, U54A
B26: target 1 MT 5'PFS GUG 3'PFS UUG (mixed)
RNA 1: B1 RNA 1
RNA 2: B1 RNA 2 with C52U, A53U, U54G
B27: target 1 MT 5'PFS UCA 3'PFS CGC (mixed)
RNA 1: B1 RNA 1
RNA 2: B1 RNA 2 with G27U, U28C, G29A, A53G, U54C
B28: target 1 MT 5'PFS CAG 3'PFS AGU (mixed)
RNA 1: B1 RNA 1
RNA 2: B1 RNA 2 with G27C, U28A, C52A, A53G
B29: target 1 MT 5'PFS GUG 3'PFS UUU (mixed)
RNA 1: B1 RNA 1
RNA 2: B1 RNA 2 with C52U, A53U
B30: target 1 MT 5'PFS GUG 3'PFS CAG (mixed)
RNA 1: B1 RNA 1
RNA 2: B1 RNA 2 with U54G
B31: target 1 MT 5'PFS UCA 3'PFS AGU (mixed)
RNA 1: B1 RNA 1
RNA 2: B1 RNA 2 with G27U, U28C, G29A, C52A, A53G
B32: target 1 MT 5'PFS AAC 3'PFS UUG (mixed)
RNA 1: B1 RNA 1
RNA 2: B1 RNA 2 with G27A, U28A, G29C, C52U, A53U, U54G

This series has as its target T1, EsCas13d, nuclease-dead. Kind of series: crRNA (strand 1, pre-loaded); Mg2+; 40 mM Tris-HCl pH 7.5, 150 mM NaCl, 6 mM MgCl2, 1 mM DTT, 0.1% Tween-20, 0.2 mg/ml BSA; 25 C; 10 min per concentration, then washed. The conditions noted are these: tags: His6-TwinStrep-SUMO cleaved; N-terminal SNAP kept (SNAP-Surface 488); label: 3' end held by stalled T7 RNA polymerase.
What is called Kd is the equilibrium constant for the complex coming apart. The low end stands for tighter binding, the high end for weaker binding. The molecule B1 yielded a Kd of 18.4 ± 2 nM.
The figure for B2 is about 8.15 nM; for B3 it is 12.2 ± 1.6 nM.
As to B4, the Kd was 33 ± 12.5 nM.
In turn, B5 displayed an equilibrium dissociation constant (Kd) of 32 ± 4 nM.
Molecule B6 came in with a Kd of 9.35 ± 3.2 nM.
In the case of B7, the Kd is 26.6 ± 2.8 nM. Against the preceding molecule, the Kd is about 2.8-fold higher.
In turn, B8 registered a Kd of 6.1 ± 1.7 nM.
The figure for B9 is about 100 nM; for B10 it is 90 ± 40 nM; for B11 it is 13.9 ± 4.8 nM.
The molecule B12 came in with a Kd of 9.65 ± 2.5 nM.
For B13 the value was 5 ± 1.85 nM.
For B14 the value was 31 ± 4.5 nM; for B15, about 25.5 nM.
B16: binding was put at a Kd of 20.5 ± 9 nM.
Molecule B17 yielded a dissociation constant (Kd) of 6.05 ± 1.8 nM. This Kd is about 3.4-fold lower than that of the molecule before.
B18 displayed a Kd of 52.5 ± 25 nM. This Kd is about 8.7-fold higher than that of the molecule before.
Take B19: the affinity, expressed as Kd, was 29 ± 5 nM.
Molecule B20 yielded a Kd of 10.6 ± 0.65 nM.
Molecule B21 gave a Kd of 2.62 ± 0.595 nM. This Kd is about 4-fold lower than that of the molecule before.
For B22 the value was 4.95 ± 1 nM; for B23, 11.6 ± 0.9 nM; for B24, 15 ± 0.8 nM.
B25: binding was put at a Kd of 20.1 ± 3.2 nM. The Kd values of the last two molecules are within 1.5-fold of each other.
Molecule B26 had a dissociation constant Kd of 7.86 ± 0.47 nM.
B27 showed a Kd of 10.8 ± 3.85 nM.
Turning to B28, the Kd came to 57 ± 22.5 nM.
In turn, B29 returned an equilibrium dissociation constant (Kd) of 9.05 ± 0.495 nM.
B30 came in with a dissociation constant Kd of 22.8 ± 2 nM.
B31 came in with an equilibrium dissociation constant (Kd) of 24.6 ± 5.5 nM.
The figure for B32 is 15.3 ± 3.3 nM.

The values above are taken from paper PMC10786891, “Massively parallel profiling of RNA-targeting CRISPR-Cas13d”.
